Test results: paper doi:10.1101/2025.01.22.634249

Target: TMHC2, designed transmembrane (TM) homodimer, monomeric construct with N-terminal SpyTag and SnoopTag (wild type)
Assay: single-molecule magnetic tweezers

Work on TRTEIIRELERSL [peptide II (13-aa peptide …)] yielded an increase of partial TMHC2 dimerization up to the I1 state with peptide II of 41%, a percent of traces with only partial TMHC2 dimerization with 10 μM peptide of 62% and a probability of complete TMHC2 dimerization with 10 μM peptide of 38%.
